Assay results reported in patent US20180327501A1 (CARSGEN THERAPEUTICS, published 2018).
Positions count from the first letter of the chain named.

B1: scFv-Y022-Fc (Fc fusion)
chain: DIQMTQSPSSLSASVGDRVTITCHASQDINVNIGWLQQKPGKAFKGLIYHGKNLEDGVPSRFSGSGSGTDFTLTISSLQPEDFATYYCNQYENIPLTFGQGTKVEIKRGGGGSGGGGSGGGGSDVQLVESGGGLVQPGGSLRLSCAVSGYSITSDYAWNWIRQAPGKGLEWLGYISYRGRTQYNPSLKSRISITRDNSKNTFFLQLNSLRAEDTAVYYCARMGKNWDYWGQGTLVTVSS
notes: Expressed in HEK-293F cells, protein A purified; also called single chain antibody Y022; V5-scFv-Y022-Fc; not shown: Fc fragment of human IgG1 from vector pCMV-V5-Fc, fused downstream of the multiple cloning site; limits and junction res
B2: single chain antibody Y022 displayed on phage (scFv)
scFv: B1 chain
notes: 12 mutations against 7B3; not shown: fusion to M13 phage coat protein from phagemid pCANTAB 5E (pCantab 5E-Y022)
B3: M14/CD3 single chain bifunctional antibody (bispecific antibody, part only; not given: linker, anti-CD3 scFv, His tag, not shown: another chain or arm of the molecule)
chain: B1 chain with V31S, I94N, L96I, Q182N, M222L, K224R, N225G, W226F, D227R
B4: M15/CD3 single chain bifunctional antibody (bispecific antibody, part only; not given: linker, anti-CD3 scFv, His tag, not shown: another chain or arm of the molecule)
chain: B1 chain with I94N, L96I, Q182S, M222L, K224R, N225G, W226F, D227R
B5: M25/CD3 single chain bifunctional antibody (bispecific antibody, part only; not given: linker, anti-CD3 scFv, His tag, not shown: another chain or arm of the molecule)
chain: B1 chain with Q182R, M222L, K224R, N225G, W226F, D227R
B6: M26/CD3 single chain bifunctional antibody (bispecific antibody, part only; not given: linker, anti-CD3 scFv, His tag, not shown: another chain or arm of the molecule)
chain: B1 chain with M222L, K224R, N225G, W226F, D227R
B7: S7/CD3 single chain bifunctional antibody (bispecific antibody, part only; not given: linker, anti-CD3 scFv, His tag, not shown: another chain or arm of the molecule)
chain: B1 chain with K52T, I94N, L96I, Q182S, M222L, K224R, N225G, W226F, D227R
B8: S8/CD3 single chain bifunctional antibody (bispecific antibody, part only; not given: linker, anti-CD3 scFv, His tag, not shown: another chain or arm of the molecule)
chain: B1 chain with A43S, I94N, L96I, Q182S, M222L, K224R, N225G, W226F, D227R
B9: S17/CD3 single chain bifunctional antibody (bispecific antibody, part only; not given: linker, anti-CD3 scFv, His tag, not shown: another chain or arm of the molecule)
chain: B1 chain with V31T, I94N, M222L, K224R, N225G, W226F, D227R
B10: S22/CD3 single chain bifunctional antibody (bispecific antibody, part only; not given: linker, anti-CD3 scFv, His tag, not shown: another chain or arm of the molecule)
chain: B1 chain with K52T, I94N, Q182R, M222L, K224R, N225G, W226F, D227R
B11: S23/CD3 single chain bifunctional antibody (bispecific antibody, part only; not given: linker, anti-CD3 scFv, His tag, not shown: another chain or arm of the molecule)
chain: B1 chain with A43S, I94N, Q182R, M222L, K224R, N225G, W226F, D227R
B12: S29/CD3 single chain bifunctional antibody (bispecific antibody, part only; not given: linker, anti-CD3 scFv, His tag, not shown: another chain or arm of the molecule)
chain: B1 chain with I94F, Q182R, M222L, K224R, N225G, W226F, D227R
B13: antibody 7B3, single chain antibody with carboxy-terminal 6xhistidine, produced in E. coli (scFv)
scFv: DIQMTQSPSSLSASVGDRVTITCHASQDINSNIGWLQQKPGKAFKGLIYHGKNLEDGVPSRFSGSGSGTDFTLTISSLQPEDFATYYCVQYAQFPYTFGQGTKVEIKRGGGGSGGGGSGGGGSDVQLVESGGGLVQPGGSLRLSCAVSGYSITSDYAWNWIRQAPGKGLEWLGYISYRGRTSYNPSLKSRISITRDNSKNTFFLQLNSLRAEDTAVYYCARLGRGFRYWGQGTLVTVSSHHHHHH
B14: antibody Y022, single chain antibody with carboxy-terminal 6xhistidine, produced in E. coli (scFv)
scFv: DIQMTQSPSSLSASVGDRVTITCHASQDINVNIGWLQQKPGKAFKGLIYHGKNLEDGVPSRFSGSGSGTDFTLTISSLQPEDFATYYCNQYENIPLTFGQGTKVEIKRGGGGSGGGGSGGGGSDVQLVESGGGLVQPGGSLRLSCAVSGYSITSDYAWNWIRQAPGKGLEWLGYISYRGRTQYNPSLKSRISITRDNSKNTFFLQLNSLRAEDTAVYYCARMGKNWDYWGQGTLVTVSSHHHHHH

Each binder was assayed against T1, EGFRvIII on U87-EGFRvIII cells (human, UniProt P00533 25-1210) (assay: FACS on U87-EGFRvIII cells, 20 µg/ml).
T1 construct: whole, on cells; EGFRvIII is a deletion variant of it; also called U87MG-EGFRvIII; mutant human EGFR
Experimental: 2) Cells were digested with 10 mM EDTA and cells were collected by centrifugation at 200 g for 5 min. Cells were resuspended in 1% phosphate buffered saline (NBS PBS) containing calf serum at a concentration of 1×10⁶ to 1×10⁷/mL, and added in a flow tube in an amount of 100 μl/tube.
And PBS was used as a negative control. The final concentration of antibody was 20 μg/ml, 100 μl was added to each tube and placed in an ice bath for 45 minutes.

B1: binds.

Each binder was assayed against T2, N1N2 (control protein) (M13 phage, UniProt P69168 19-235, limits assumed) (assay: single phage ELISA, 100 ng/well coated protein).
T2 construct: domain: N1N2 domain; Negative control protein in the phage ELISA
Experimental: (§1) Each well was blocked with PBST containing 2% BSA (w/v). The wells were then washed with PBST for three times. Then, each phage solution prepared above was added to each well of the plate at 100 μl/well. After incubation for 2 hours at 37° C., it was washed for three times with PBST. To detect bound phage, anti-M13 antibody […] conjugate (purchased from GE Healthcare) was diluted at 1:5000 in PBST and 100 μl was added to each well. After incubating at 37° C. for 1 hour, the wells were rinsed for three times with PBST and then rinsed for three times with PBS. Finally, 50 μl of TMB substrate was added into the wells and developed for 10 minutes at room temperature, followed by addition of 50 μl of 2M H₂SO₄ per well to stop the color reaction. Extinction values were measured at 450 nm with an enzyme-linked immunosorbent (Bio-Rad).
(§2) All of the altered amino acid positions include S31 in the light chain CDR1 region, V89, A92, Q93, F94 and Y96 in the light chain CDR3 region, 5182 in the heavy chain CDR2 region, L222, R224, G225, F226 and R227 in the heavy chain CDR3 region.

T2 sequence (P69168 19-235 limits assumed): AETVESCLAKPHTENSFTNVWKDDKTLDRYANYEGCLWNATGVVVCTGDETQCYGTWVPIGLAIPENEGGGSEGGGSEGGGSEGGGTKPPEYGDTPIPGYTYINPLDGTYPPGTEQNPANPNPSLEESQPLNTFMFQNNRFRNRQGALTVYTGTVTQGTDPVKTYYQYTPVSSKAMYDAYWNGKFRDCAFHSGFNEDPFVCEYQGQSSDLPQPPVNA

B2: no binding.

What follows are binders tested against T3, BSA (bovine serum albumin) (bovine, UniProt P02769 25-607) (assay: single phage ELISA, 100 ng/well coated protein).
T3 construct: Negative control protein in the phage ELISA
Experimental: as §1, §2

T3 sequence (P02769 25-607 limits assumed): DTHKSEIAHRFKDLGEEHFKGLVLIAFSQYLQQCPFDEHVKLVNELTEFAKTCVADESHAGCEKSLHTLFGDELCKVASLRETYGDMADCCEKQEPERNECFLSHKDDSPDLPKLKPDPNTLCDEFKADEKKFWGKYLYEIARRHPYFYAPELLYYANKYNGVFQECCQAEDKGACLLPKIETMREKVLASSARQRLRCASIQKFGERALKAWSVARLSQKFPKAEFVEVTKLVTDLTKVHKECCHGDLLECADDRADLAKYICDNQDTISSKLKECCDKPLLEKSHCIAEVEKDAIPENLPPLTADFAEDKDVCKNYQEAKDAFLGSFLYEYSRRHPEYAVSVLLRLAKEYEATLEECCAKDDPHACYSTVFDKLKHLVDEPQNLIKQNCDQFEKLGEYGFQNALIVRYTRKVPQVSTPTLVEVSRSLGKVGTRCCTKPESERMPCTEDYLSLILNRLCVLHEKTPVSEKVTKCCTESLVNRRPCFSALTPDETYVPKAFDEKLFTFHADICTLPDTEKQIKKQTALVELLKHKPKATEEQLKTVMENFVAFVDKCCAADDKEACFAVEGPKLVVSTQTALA

B2: no binding.

These binders were tested against EGFR on the cell surface (human) (UniProt P00533) (assay: FACS on CAL 27 cells, method of Example 9; PBS control 3.11).

Point of comparison: B4, mean fluorescence intensity (MFI) 29.4. Against it:
- B3 — lower, 28.4
- B5 — lower, 24.1
- B6 — lower, 24.6
- B7 — lower, 27.9
- B8 — higher, 30
- B9 — lower, 25
- B10 — lower, 24.6
- B11 — higher, 29.7
- B12 — lower, 25.7

The binders below were run against T1, EGFRvIII on U87-EGFRvIII cells (assay: FACS on U87MG-EGFRvIII cells, method of Example 9; PBS control 1).

Point of comparison: B4, mean fluorescence intensity (MFI) 37.9. Against it:
- B3 — lower, 36.5
- B5 — lower, 36.5
- B6 — higher, 41.4
- B7 — higher, 42.2
- B8 — higher, 38.5
- B9 — lower, 31.6
- B10 — lower, 31.3
- B11 — lower, 32.2
- B12 — lower, 34.6

The binders below were run against T4, antigen EGFRvIII (purchased protein) (UniProt P00533 25-645, limits assumed) (assay: concentration gradient ELISA, EGFRvIII coated 200 ng/well, anti-His-tag detection, non-linear fit).
T4 construct: also called EGFRvIII antigen; biotin-labeled antigen EGFRvIII
Experimental: Binding activity of an antibody to antigen EGFRvIII was determined by concentration gradient ELISA assay. For this purpose, the antigen EGFRvIII was diluted with 0.1 M NaHCO₃ (pH 9.6) coating solution and each well was coated with 200 ng at 50 μl/well overnight at 4° C. and blocked with PBST containing 2% (w/v) BSA for 2 hours at room temperature. The plate was then rinsed for three times with PBST. […] After incubation for 2 hours at 37° C., plate was rinsed for three times with PBST followed by adding 100 μl/well of a 1:2000 dilution of mouse anti-His-tag antibody (available from Santa cruz) for 1 hour at 37° C. To test the bound antibody, HRP-labeled goat anti-mouse antibody (purchased from Santa Cruz) was diluted in PBST at a 1:15,000 dilution and 100 μl per well was added and incubated at 37° C. for 1 hour. […] The chromogenic reaction was stopped with 50 μl of 2 M H₂SO₄ per well and extinction value was measured at 450 nm using enzyme-linked immunoassay (Bio-Rad). The absorbance values obtained were evaluated using Sigma Plot software and the binding strength of an antibody was calculated. For this purpose, the extinction value measured in each case was plotted against the corresponding antibody concentration and the resulting curve was fitted using the following non-linear regression.

Point of comparison: B13, Kd ~22.4 nM. Against it:
- B14 — 8.3-fold lower, ~2.7 nM
